Reference: the nanobody polyreactivity screen of Harvey et al. (2022)

Experiment: yeast display, Sf9 membrane polyspecificity reagent, FACS + sequencing; frameworks hold sequencing errors
In short: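 Nanobodies came from a synthetic yeast display library in Saccharomyces cerevisiae BJ5465, induced with galactose for 36–48 hours and stained for 1 hour at 4 °C with 10% biotinylated, detergent-solubilized Sf9 membrane reagent. Cells were enriched on streptavidin microbeads and then FACS-sorted, with low and high (top ~1%) gates set on anti-HA fluorescence for expression and streptavidin fluorescence for reagent binding. Each polyreactivity label reflects the gate a clone came from. Genes were amplified by colony PCR, sequenced by MiSeq 2 × 250 and filtered by CDR length.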

Row | Sequence | polyreactivity (PSR sort gate)
1 | QGQLVESGGGLVQAGGSLRLSCAASGSIFWYYAMGGYRQAPGKERELVADITSTGGSTYYADSVKGRFTISRDNAKNTVYLQMNSLKPEDTAVYYCAGEASYHGYYSLGYWGQGTQVTVSS | high polyreactivity
2 | QVQLVESGGGLVQAGRSLRLSCAASGRIFPRNVMGWYRQAPGKERELVAAISSRGTRTYYADSVKGRFTISRDNAKNSVYLQLYSLKPEDTAVYYCAADGPYEGYDYWGQGTQVTVSS | high polyreactivity
3 | QVQLVESVGGLVQAGGSLRLSCAASGRTFGRYAMGWYRQAPGKERELVAGISRSGDSTHYADSVKGRFTISRDNAKNTVYLQMNSLKPEDTAVYYCNKETPTNGARKYEYWGQGTQVTVSS | low polyreactivity
4 | QVQLVESGGGLVQAGGSLRLSCAASGIIFQTYAMGWYRQAPGKERELVAAISRTGGSTYYADSVKGRFTISRDNAKITVYVQMHSLKPEDTAVYSCAAPRFAAPLRIGYVWGQVTQVTVSS | high polyreactivity
5 | QVQLVESGGCLVQAGGSLRLSCAASGSIFEYYAMAWSRQAPGKERELVAAINSGDITKYADSVKGRFTISRDNAKNTVYLQMNSLKPEDTAVYYCAKRLSSREYYWGQGSQVTVSS | high polyreactivity
6 | QVQLVESGGGLVQAGGSLRLSCAASGSIFIRNAMGWYRQAPGKERELVAAITSGGNTYYADSVKGRFTISRDNAKNTVYFQMNSLKPEDTAVWGQGTQVTLSS | low polyreactivity
7 | QVQLVESGGGLVQAGGSLRLSCAASGSTLAKYTMGWYRQAPGKERELVATISRRGGSTYYADSVKGRFTISRDNAKNTVYLQMNSLKPEDTAVYYCNAVGHTSIRRALDILDYWGQGTQVTVSS | high polyreactivity
8 | QVQLVESGGGLVQAGGSLRLSCAASGRTFGANAMGWYRQAPGKERELVAAISSSDDSTYYADSVKGRFTISRDNAKNTVYLQMNSLKPEDTAVYYCAAEDVYPQLDYWGQGTLVTVSS | low polyreactivity
9 | QVQLVESGGGLVQAGGSLRLSCAASGSIFSWYAMGWYRQAPGKERELVAAISNSGGSTYYADSVKGRFTISRDNAKNTVYLQMNSLKPEDTAVYYCAAYDGDTYDWGQGTQVTVSS | high polyreactivity
10 | QVQLVESGGGLVQAGGSLRLSCAASGSTFWPYALGWYRQAPVKERELVAAITNSGGSTYYADSVKGRFTISRDNAKNTVYLQMNSLKPEDTAVYYCAVRGVIYSYTPVNSYVFWGQGTQVTVSS | low polyreactivity
11 | QVQLVESRGGLVQAGGSLRLSCAASGSTSYIYVMGWYRQAPGKERELVATISKNGGDTYADSVKGRFTISRDNAKNTVYLQMNSLKPEDTAVYYCYARAYLYNRRISSRYNYWGQGTQVTVSS | high polyreactivity
12 | QVPLVESGGGLVQAGGSLRLSCAASGSTFYTYAMGWYRQAPGKERELVATISRGGGRTYYADSVKGRFTISRDNAKYTVYLQMISLKPEDTAVYYCAARLYSSSYNSEQYYYWGQGTQVTVSS | high polyreactivity
13 | QVQLVESGGGLVQAGGSLRLSCAASGSIFTLYAMGRYRQAPGKERELVAAITWSGGSSYYADSVKGRFTISRDNAKNTVYLQMNSLKPEDTAVYYCAKDYLAGGPWEGLVEREYDYWGQGTQVTVSS | low polyreactivity
14 | QVQLVESGGGIVQAGGSLRLSCAASGSIFNIYAMGWYRQAPGKERELVAAIRWTGGSTYYADSVKGRFTISRDNAKNTVYLQMNILIPEDTAVYYCAADPWYPRGYYWGQGTQVTVSS | high polyreactivity
15 | QVQLVESGGGLVQAGGSLRLSCAASGSISYYYGMGWYRQAPGKERELVAAISTRGGSTYYADSVKGRFTISRDNAKNTVYLQMNSLKPEDTAVYYCAVRYYRPYSRFDYWGQGTQVTVSS | high polyreactivity
16 | QVQLVESGGGLVQAGGSLRLSCAASGRILGFYAMGWYRQAPGKERELVARINWSGTRTYYADSVKGRFTISRDNAKNTVYLQMNSLKPEDTAVYYCAARRYYPYDYWGQGTQVTVSS | high polyreactivity
17 | QVQLVESGGGLVQAGGSLRLSCAASGITFPSYTMGWYRQAPGKERELVATIRNGGSTYYADSVKGRFTISRDNAKNTVYLQMNSLKPEDPAVYYCAAVPLWDYKFFYYLLYDYWGQGTQVTVSS | low polyreactivity
18 | QVQLVESGGGLVQAGGSLRLSCAASGFTFVFYAMGWYRQAPGKERELVAGISRTGGSTYYADSVKGRFTISRDNAKNTVYLQMNSLKPEDTAVYYCNAARFTRRDYWGQGTQVTVSS | high polyreactivity
19 | QVQLVESGGGLVQAGGSLRLSCAAYGRTSRRNAMGWYRQAPGKERELVAAINRTGGTTYYADYVKGRFTISRDNAKNTVYLQMNSLKPVVNAVYYCAAGAPLSTPRGTTYRYYYWGQGTQVTVSS | high polyreactivity
20 | QVQLVESGGGLVQAGGSLRLSCAASGITLDRNYMGWYRQAPGKERELVAAISRSGVRTYYADSVKGRFTISRDNAKNTVYLQMNSLKPEDTAVYYCNKGYARRYASGYDYWGQGTQVTVSS | high polyreactivity
21 | QVQLVESGGGLVQAGGSLRLSCAASGRIFRGYAMGWYRQAPGKERELVATISAIGGSTYADSVKGRFTISRDNAKNTVYLQRNSLKPEDTAVYYCNVRKVYRYQYRFEYWGQGTQVTVSS | high polyreactivity
22 | QVQLVESGGGLVQEGGSLRLSCAASGSIFRKYAMGWYRQAPGKERELVAVITTDGSTNYADSVKGRFTISRDNAKNSVYLQMNSMNPEDTAVYYCNAVRSSIGTDIDYWGQGTQVTGSS | low polyreactivity

Row | Sequence | polyreactivity (PSR sort gate)
23 | QVQLVESGGGFVQAGGSLRLSCAASVIFGYYAMGWYSQAPGKERELVAAINWRGDSTYYADSVKGRFTISRDNAKNTVYLQMNSLKPEDTAVYYCAAQRRDIALLYDYWGQGTQVTLSS | low polyreactivity
24 | QVQLVESGRGLFQEGGSLRLSCAPSGFIFGKYAMGWYRQAPGTEREFVAAITRNGGSTYYADSVKGRVTISRDNAKNTVYLQMNSLKPDDTAVYYCNADRGYRRRTGMDDWGQVTQVTVSS | low polyreactivity
25 | QVQLVESGGGLVQAGGSLRLSCAASGFTFSDYAMGSNRQAPGKERELVAAITSRTGTTYYADSVKWRFTISRDNAKNTVYLQMNSLKPEDTAVYYCNKVKFRSQDMDYWGQGTQVTVSS | high polyreactivity
26 | QVQLVESGGGLVQAGGSLRLSCAASGSTFEPYAMGWYRQAPGKERELVAAISSGGSTSYADSVKGRFTISRDNAKNTVYLQMNSLKPEDTAVYYCAKRWRSYRHEDYGYWGQGTQVTVSS | low polyreactivity
27 | QVQLVESGGGLVQAGGSLRLSCAASGITFYYYAMGWYRQAPGKERELVAAISRSGITYYADSVKGRFTISRDNAKNTVYLQMNSLKPEDTAVYYCAAGRRFDQSMYYWGQGTQVTVSS | high polyreactivity
28 | QVQLVESGGGLVQAGGSLRLSCAASGFNYSQYAMGWYRQAPGKERELVAAITTTGGSTYYADSVKGRFTISRDNAKNTVYLQMNSLKPDDTAVYYCAARYVRTVRGGYWGQGTQVTVSS | high polyreactivity
29 | QVQLVESGGGLVQAGGSLRLSCAASGRTFWVYAMGWYRQAPGKERELVAAIRRGGITNYADSVKGRFTISRDNAKNTVYLQMNSLKPEDTAVYYCAALGLWFLQFDYWGQGTQVTVSS | low polyreactivity
30 | QVQLVDSGGGLVQAGGSLRLTCAASGRIFCDNAMGWYRQEPGKERELVAAISDSVVITYYADSVKGRFTISRDNAKNTVYLQMNSLKPEDTAVYYCAADKRGTVYLSSFWMDYWGQGTQVTVSS | low polyreactivity
31 | QVQLVESGGGLVQAGGSLRLSCAASGNTFYANTMGWYRQAPGKERELVAAITVRGASTNYADSVKGSFTISRDNAKNTVYLQMNSLKPEDTAVYYCNAVGLRSPWHQDYLIRYDYRGQGTQVTVSS | low polyreactivity
32 | QVQLVESGGGLVQAGGSLRLSCAASGRIIYIYAMGWYIQAPGKERELVAAITASSGSTNYADSVKGRFTISRDNAKNTVYLQMNSLKPEDTAVYYCAAAPSRTLLRQSKYYYWGQGTQVTVSS | low polyreactivity
33 | QVQLVESGGGLVQAGGSLRLSCAASGYILHRNAMGWYRQAPGKERELVAVISWGGTSTYYADSVKGRFTISRDNAKNTVYLLMNSLKPEDTAVYYCNAKGWYYKYDYWGQGTQVNVSS | high polyreactivity
34 | QVQLVESGGGLVQAGGSLRLSCAASGSTFWSYAMGWYRQAPGKEREFVAAISRSGDSTYYADSVKGRFTISRDNAKNTVYLQMNSLNPEDTAVYYCNAKLVRRSYGSYYYTYDYWGQGSQVTVSS | high polyreactivity
35 | QVQLVESGGGLVQAGGSLRLSCAASGRIFARYAMGWYRQAPGKERELVASINSGGNTYYADSVKGRFTISRDNAKNTVYLQMNSLKPEDTAVYYCAAVVGRRASSRSRFEYDYWGQGTQVTVSS | low polyreactivity
36 | QVQLVESGGGLVQAGGSIRLSCAASGSTFRVYAMGWYRQAPGKERELVAAISSSGGITYYADSVKGRFTISRDNAKNTVYLQMNSLKPEDTAVYYCAKGTVIHVLYDYWGQGTQVTVSS | low polyreactivity
37 | QVQLVESGAGLVQAGGSLRLICAASGFIFADYAMGWYRQAPGKERELVAAITSSGSRTYYADSVKGRFTISRDNAKNTVYLQMNSLKPEDTAVYYCAVRGVYYYHFAFDYWGQGTQVTVSS | high polyreactivity
38 | QVQLVESGGGLVQAGGSLRLSCAASGRIFSLNDMGWYRQAPGKERELVATIRGRGTSTYYADSVKGRFTISRDNAKNTVYLQMNSLKPEDTAVYYCAARGHGAYGYWGQGSQVTVSS | low polyreactivity
39 | QVQLVESGAGLVQAGGSLRLSCAASGFIFFYYAMGWYRQAPGKERELVAAISASGGSTYYADSVKGRFTISRDNAKNTVYLQLNSLKPEDTAVYYCAARYRKAESARWEYDYWGQGTQVTVSS | high polyreactivity
40 | QVQLVESGGGLVQAGGSLRLSCAASGSIFSSYAMGWYRQAPGKERELVASISRRGGSTYYADSVKGRFTISRDNAKNTVYLQMNSLKPEDTAVYYCNASGGPYRYYYWGQGTQVTVSS | low polyreactivity
41 | QVQLVESGGGLVQAGGSLRLSCAASGSTFTYYAMGWYRQAPGKERELVAAISSTDSTYYADSVKGRFTISRDNAKNTVYVQMNSLKPEDTAVYYCAAVRFSHSRETRRGYWGQGTQVTVSS | high polyreactivity
42 | QVQRVESGGGLVQAGGSLRLTSAVSGTTFYIYAMGWYRQAPGKEREFVAAIDFSGSSTYADSVKGRFTISRDNAKNTVYLQMNSLKPEDTEVYYCAAYQIFQYDGPYDYWGQGTQVTVSS | low polyreactivity
43 | QVQLVESGGGLVQAGGSLRLSCAASGLIFNTYAMGWYRQAPGKDRELVAAITDGGGTNYADSVKGRFTISRDNAKNTVYLQMNSLKPEDTAVYYCAARLASWPLTYDFQWYEYWGQGTQVTVSS | low polyreactivity
